Assay results from publication PMC3214066.

Target: Collagen S (soluble, type I, from calf skin) (calf) (UniProt P02453)
Experiment: radioligand binding; collagen I monomers (5 µg/mL in 1% acetic acid + 1% NaCl) coated on 96-well plates, blocked with 1% BSA; 125I-labelled A1M (50×10^3 cpm) with increasing unlabelled A1M in PBS + 0.05% Tween, overnight at 4°C; Scatchard analysis

UniProt P02453, sequence (P02453 162-1217, chain 1 of 2): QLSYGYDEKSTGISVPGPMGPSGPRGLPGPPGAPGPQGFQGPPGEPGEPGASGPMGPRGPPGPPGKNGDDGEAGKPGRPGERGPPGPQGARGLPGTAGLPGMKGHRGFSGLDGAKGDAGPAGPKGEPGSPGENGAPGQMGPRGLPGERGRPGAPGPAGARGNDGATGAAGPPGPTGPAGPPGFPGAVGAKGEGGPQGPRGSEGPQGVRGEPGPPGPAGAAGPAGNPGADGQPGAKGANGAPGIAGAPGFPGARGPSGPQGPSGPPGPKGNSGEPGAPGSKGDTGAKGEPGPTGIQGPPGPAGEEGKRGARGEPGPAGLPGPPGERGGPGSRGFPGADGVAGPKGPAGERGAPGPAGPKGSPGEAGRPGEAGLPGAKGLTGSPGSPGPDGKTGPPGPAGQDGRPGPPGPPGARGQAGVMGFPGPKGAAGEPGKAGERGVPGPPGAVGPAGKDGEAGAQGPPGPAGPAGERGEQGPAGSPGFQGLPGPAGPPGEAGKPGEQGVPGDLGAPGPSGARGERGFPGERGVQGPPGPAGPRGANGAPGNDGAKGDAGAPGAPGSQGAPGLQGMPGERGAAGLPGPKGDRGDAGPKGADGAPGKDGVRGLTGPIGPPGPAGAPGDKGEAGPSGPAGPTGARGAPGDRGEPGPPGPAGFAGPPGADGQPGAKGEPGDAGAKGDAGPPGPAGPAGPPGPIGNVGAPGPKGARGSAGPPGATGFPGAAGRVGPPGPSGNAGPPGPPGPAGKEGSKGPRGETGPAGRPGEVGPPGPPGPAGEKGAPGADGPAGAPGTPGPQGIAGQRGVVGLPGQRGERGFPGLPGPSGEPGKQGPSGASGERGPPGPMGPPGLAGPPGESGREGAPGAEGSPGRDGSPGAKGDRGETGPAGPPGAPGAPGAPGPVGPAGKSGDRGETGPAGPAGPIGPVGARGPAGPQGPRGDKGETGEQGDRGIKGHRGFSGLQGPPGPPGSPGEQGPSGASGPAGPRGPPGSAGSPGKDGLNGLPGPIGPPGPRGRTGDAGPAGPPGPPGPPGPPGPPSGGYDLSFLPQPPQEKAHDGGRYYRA
UniProt P02453, sequence (P02465 80-1117, chain 2 of 2, further chain): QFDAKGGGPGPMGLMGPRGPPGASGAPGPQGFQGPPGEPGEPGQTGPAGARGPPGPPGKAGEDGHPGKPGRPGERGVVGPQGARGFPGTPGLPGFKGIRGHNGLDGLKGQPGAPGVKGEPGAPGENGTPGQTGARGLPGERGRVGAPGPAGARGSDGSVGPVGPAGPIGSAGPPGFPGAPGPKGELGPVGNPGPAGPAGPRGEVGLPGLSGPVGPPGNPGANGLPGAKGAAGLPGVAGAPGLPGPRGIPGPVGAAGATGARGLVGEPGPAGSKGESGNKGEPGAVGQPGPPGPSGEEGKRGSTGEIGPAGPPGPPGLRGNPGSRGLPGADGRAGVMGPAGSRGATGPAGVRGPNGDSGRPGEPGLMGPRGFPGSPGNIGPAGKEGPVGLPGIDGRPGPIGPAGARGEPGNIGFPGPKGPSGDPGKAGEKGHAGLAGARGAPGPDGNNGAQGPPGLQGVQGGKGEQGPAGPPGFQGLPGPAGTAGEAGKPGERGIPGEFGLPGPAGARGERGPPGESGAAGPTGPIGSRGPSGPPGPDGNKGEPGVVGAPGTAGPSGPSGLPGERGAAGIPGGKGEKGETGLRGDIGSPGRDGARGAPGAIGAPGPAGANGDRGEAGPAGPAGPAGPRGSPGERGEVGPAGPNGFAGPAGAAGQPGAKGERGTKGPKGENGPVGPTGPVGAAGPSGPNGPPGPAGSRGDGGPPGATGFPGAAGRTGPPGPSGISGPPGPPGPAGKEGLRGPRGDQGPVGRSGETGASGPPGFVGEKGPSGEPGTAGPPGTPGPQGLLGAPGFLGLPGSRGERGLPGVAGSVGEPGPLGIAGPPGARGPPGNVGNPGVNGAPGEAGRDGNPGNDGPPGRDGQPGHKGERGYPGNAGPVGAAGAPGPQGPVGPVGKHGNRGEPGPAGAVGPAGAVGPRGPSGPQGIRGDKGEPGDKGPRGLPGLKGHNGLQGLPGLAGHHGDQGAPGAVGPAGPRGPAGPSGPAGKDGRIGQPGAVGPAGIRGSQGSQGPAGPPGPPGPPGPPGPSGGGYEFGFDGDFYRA

B1: Recombinant human α1-microglobulin (A1M) (natural protein)
chain: GPVPTPPDNIQVQENFNISRIYGKWYNLAIGSTCPWLKKIMDRMTVSTLVLGEGATEAEISMTSTRWRKGVCEETSGAYEKTDTDGKFLYHKSKWNITMESYVVHTNYDEYAIFLTKKFSRHHGPTITAKLYGRAPQLRETLLQDFRVVAQGVGIPEDSIFTMADRGECVPGEQEPEPILIPRV
modifications: 125I label (chloramine T method) on the tracer in the solid phase binding assay; colloidal gold label (4-5 nm) in the electron microscopy binding experiment
  Kd: 960 nM
